The chains are these.
B1: Sema3A fused in frame with alkaline phosphatase (sema3A-AP) (ligand)
chain: NYQNGKNNVPRLKLSYKEMLESNNVITFNGLANSSSYHTFLLDEERSRLYVGAKDHIFSFDLVNIKDFQKIVWPVSYTRRDECKWAGKDILKECANFIKVLKAYNQTHLYACGTGAFHPICTYIEIGHHPEDNIFKLENSHFENGRGKSPYDPKLLTASLLIDGELYSGTAADFMGRDFAIFRTLGHHHPIRTEQHDSRWLNDPKFISAHLISESDNPEDDKVYFFFRENAIDGEHSGKATHARIGQICKNDFGGHRSLVNKWTTFLKARLICSVPGPNGIDTHFDELQDVFLMNFKDPKNPVVYGVFTTSSNIFKGSAVCMYSMSDVRRVFLGPYAHRDGPNYQWVPYQGRVPYPRPGTCPSKTFGGFDSTKDLPDDVITFARSHPAMYNPVFPMNNRPIVIKTDVNYQFTQIVVDRVDAEDGQYDVMFIGTDVGTVLKVVSIPKETWYDLEEVLLEEMTVFREPTAISAMELSTKQQQLYIGSTAGVAQLPLHRCDIYGKACAECCLARDPYCAWDGSACSRYFPTAKRRTRRQDIRNGDPLTHCSDLHHDNHHGHSPEERIIYGVENSSTFLECSPKSQRALVYWQFQRRNEERKEEIRVDDHIIRTDQGLLLRSLQQKDSGNYLCHAVEHGFIQTLLKVTLEVIDTEHLEELLHKDDDGDGSKTKEMSNSMTPSQKVWYRDFMQLINHPNLNTMDEFCEQVWKRDRKQRRQRPGHTPGNSNKWKHLQENKKGRNRRTHEFERAPRSV

In data set [1] the target is neuropilin-1 (NRP-1) on parental U87MG cells (human (endogenous in U87MG), UniProt O14786 22-923). The data set can be described thus: alkaline phosphatase fusion binding to cells.
Data set [2] deals with the molecule itself. In words: SDS-PAGE with and without reducing agent, western blot. (In general: In western blotting, separated proteins are transferred to a membrane and probed.)
The target of data set [3] is B1. In words: alkaline phosphatase fusion binding to cells.

By Kd is commonly meant a measure of binding affinity in units of concentration. Broadly, the stoichiometry N is a count of units in the complex or per binding partner.

neuropilin-1 (NRP-1) on parental U87MG cells, sequence (O14786 22-923): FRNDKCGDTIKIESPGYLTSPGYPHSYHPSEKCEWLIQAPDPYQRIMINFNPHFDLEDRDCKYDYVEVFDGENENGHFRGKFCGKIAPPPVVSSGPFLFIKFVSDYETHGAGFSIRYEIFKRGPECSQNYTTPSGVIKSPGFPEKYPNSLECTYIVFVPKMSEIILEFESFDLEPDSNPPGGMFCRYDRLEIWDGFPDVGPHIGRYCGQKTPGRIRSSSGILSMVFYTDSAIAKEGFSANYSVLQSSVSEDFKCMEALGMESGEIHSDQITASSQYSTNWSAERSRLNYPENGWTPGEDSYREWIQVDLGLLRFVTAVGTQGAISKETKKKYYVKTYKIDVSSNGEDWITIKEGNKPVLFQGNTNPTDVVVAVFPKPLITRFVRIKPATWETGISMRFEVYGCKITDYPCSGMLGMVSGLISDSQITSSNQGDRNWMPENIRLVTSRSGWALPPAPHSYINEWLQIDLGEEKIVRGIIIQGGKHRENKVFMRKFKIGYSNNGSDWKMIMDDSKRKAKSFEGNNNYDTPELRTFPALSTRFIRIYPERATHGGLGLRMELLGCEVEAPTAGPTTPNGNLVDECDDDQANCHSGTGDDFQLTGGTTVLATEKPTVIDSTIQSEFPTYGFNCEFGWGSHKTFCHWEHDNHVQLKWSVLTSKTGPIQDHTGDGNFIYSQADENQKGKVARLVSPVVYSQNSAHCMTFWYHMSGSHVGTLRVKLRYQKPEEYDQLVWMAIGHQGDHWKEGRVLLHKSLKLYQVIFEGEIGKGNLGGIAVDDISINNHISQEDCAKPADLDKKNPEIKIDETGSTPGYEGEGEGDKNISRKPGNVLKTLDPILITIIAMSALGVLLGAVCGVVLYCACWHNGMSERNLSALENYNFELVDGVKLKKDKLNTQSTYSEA

With B1, the Kd in data set [1] was around 4.73 nM.

B2: modified truncated sema3A (T-sema3A) (ligand)
chain: NYQNGKNNVPRLKLSYKEMLESNNVITFNGLANSSSYHTFLLDEERSRLYVGAKDHIFSFDLVNIKDFQKIVWPVSYTRRDECKWAGKDILKECANFIKVLKAYNQTHLYACGTGAFHPICTYIEIGHHPEDNIFKLENSHFENGRGKSPYDPKLLTASLLIDGELYSGTAADFMGRDFAIFRTLGHHHPIRTEQHDSRWLNDPKFISAHLISESDNPEDDKVYFFFRENAIDGEHCGKATHARIGQICKNDFGGHRSLVNKWTTFLKARLICSVPGPNGIDTHFDELQDVFLMNFKDPKNPVVYGVFTTSSNIFKGSAVCMYSMSDVRRVFLGPYAHRDGPNYQWVPYQGRVPYPRPGTCPSKTFGGFDSTKDLPDDVITFARSHPAMYNPVFPMNNRPIVIKTDVNYQFTQIVVDRVDAEDGQYDVMFIGTDVGTVLKVVSIPKETWYDLEEVLLEEMTVFREPTAISAMELSTKQQQLYIGSTAGVAQLPLHR
With B2, the “stoichiometry N” value in data set [2] turned out to be 2.

B3: CD72 fused with a V5 epitope tag, expressed in U87MG-ΔNRP-1-CD72+ cells (receptor)
chain: MAEAITYADLRFVKAPLKKSISSRLGQDPGADDDGEITYENVQVPAVLGVPSSLASSVLGDKAAVKSEQPTASWRAVTSPAVGRILPCRTTCLRYLLLGLLLTCLLLGVTAICLGVRYLQVSQQLQQTNRVLEVTNSSLRQQLRLKITQLGQSAEDLQGSRRELAQSQEALQVEQRAHQAAEGQLQACQADRQKTKETLQSEEQQRRALEQKLSNMENRLKPFFTCGSADTCCPSGWIMHQKSCFYISLTSKNWQESQKQCETLSSKLATFSEIYPQSHSYYFLNSLLPNGGSGNSYWTGLSSNKDWKLTDDTQRTRTYAQSSKCNKVHKTWSWWTLESESCRSSLPYICEMTAFRFPD
The molecule B3 yielded a Kd in data set [3] of around 7.62 nM.
